As a reminder, the EC50 (read off the curve) is the midpoint of the concentration-response curve. In general, IC50 refers to the point on the concentration scale where inhibition reaches its midpoint. High values mean weaker potency in that assay, low ones greater potency in that assay.

The target of test [1] is T1, Human OPG-Fc (human).
T1 construct: also called hOPG-Fc; human OPG (in-house)
In words: SPR (ProteOn XPR36), antibody captured on anti-mouse IgG, OPG-Fc as analyte, 25 C, 1:1 model; apparent affinity.

Test [2] has as its target T2, Cyno OPG-Fc (cynomolgus).
T2 construct: The entry begins with a signal peptide ('usually cleaved upon expression'); also called cyno OPG (in-house)
Described as above.

Test [3] has as its target T3, Rat OPG-Fc (rat).
T3 construct: The entry begins with a signal peptide ('usually cleaved upon expression'); also called rat OPG (in-house)
Described as above.

Test [4] addresses T1, Human OPG-Fc. In words: HTRF competition, purified antibody titrated from 120 nM against 20 nM OPG and 55.6 nM RANKL-647; remaining specific binding of RANKL. On the technique in general: Time-resolved FRET reads energy transfer from a long-lived donor to a nearby acceptor.
For test [5], the target named is T1, Human OPG-Fc. In words: SPR (ProteOn XPR36), antibody captured on anti-mouse IgG, OPG-Fc as analyte, 25 C, 1:1 model. The procedure:
(§1) Affinity of secreted antibodies was assessed by testing hybridoma supernatants by Label-free surface plasmon resonance (SPR). This analysis was carried out on the ProteOn XPR36 (BioRad) array SPR machine. An anti-mouse IgG capture surface was created on a GLC biosensor chip using amine coupling of an anti-mouse IgG from GE Healthcare. Test antibodies were captured on this surface and human, rat and cyno OPG (in-house) was used as the analyte at 256 nM, 64 nM, 16 nM, 4 nM and 1 nM for Ky3 (15F11), Ky4 (16G05), 5A06, 25F06, 15B08 and 10B07 and at a single concentration of 100 nM for Ky1 (6D07) and Ky2 (8C10). The assay was carried out at 25° C. using HBS-EP (Teknova H8022). Buffer alone was used to reference the binding sensorgrams. The data was analysed using the 1:1 model inherent to the ProteOn XPR36 analysis software.

Test [6] addresses T2, Cyno OPG-Fc. The description is as above. The protocol:
as §1

Test [7] has as its target T3, Rat OPG-Fc. Described as above. The protocol:
as §1

Test [8] has as its target T1, Human OPG-Fc. The experiment in a line: HTRF competition, purified antibody titrated from 120 nM against 4 nM OPG-Fc and 16 nM TRAIL-Flag; remaining specific binding of TRAIL.
For test [9], the target named is T2, Cyno OPG-Fc. The experiment in a line: SPR (ProteOn XPR36); CNROR = cannot resolve off rate, no KD given.
Test [10] has as its target T1, Human OPG-Fc. In words: cell-based or functional assay.
Test [11] concerns the target T1, Human OPG-Fc. The experiment in a line: HTRF competition, purified antibody titrated from 120 nM against 4 nM OPG-Fc and 16 nM TRAIL-Flag; inhibition of TRAIL binding.
In test [12] the target is T2, Cyno OPG-Fc. In words: SPR (ProteOn XPR36), antibody captured on anti-mouse IgG, OPG-Fc as analyte; CNROR = cannot resolve off rate, no KD given.

T2 sequence (chain, as listed by the source limits assumed): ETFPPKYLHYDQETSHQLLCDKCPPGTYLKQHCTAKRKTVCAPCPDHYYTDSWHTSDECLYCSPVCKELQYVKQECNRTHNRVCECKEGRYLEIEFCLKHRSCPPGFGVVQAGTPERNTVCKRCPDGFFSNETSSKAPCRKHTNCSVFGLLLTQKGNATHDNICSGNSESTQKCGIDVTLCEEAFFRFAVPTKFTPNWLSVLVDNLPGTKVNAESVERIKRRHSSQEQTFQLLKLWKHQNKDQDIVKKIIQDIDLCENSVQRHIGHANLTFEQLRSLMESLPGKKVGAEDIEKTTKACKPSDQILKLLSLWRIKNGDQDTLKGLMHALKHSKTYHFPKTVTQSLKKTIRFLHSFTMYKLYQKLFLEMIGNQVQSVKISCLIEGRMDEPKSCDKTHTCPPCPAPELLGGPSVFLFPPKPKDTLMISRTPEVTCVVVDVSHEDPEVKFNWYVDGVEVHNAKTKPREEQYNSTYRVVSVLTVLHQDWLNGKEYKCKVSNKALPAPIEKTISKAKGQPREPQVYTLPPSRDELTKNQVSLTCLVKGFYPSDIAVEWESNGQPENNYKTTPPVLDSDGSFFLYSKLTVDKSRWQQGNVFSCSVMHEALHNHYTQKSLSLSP
T1 sequence (chain, as listed by the source limits assumed): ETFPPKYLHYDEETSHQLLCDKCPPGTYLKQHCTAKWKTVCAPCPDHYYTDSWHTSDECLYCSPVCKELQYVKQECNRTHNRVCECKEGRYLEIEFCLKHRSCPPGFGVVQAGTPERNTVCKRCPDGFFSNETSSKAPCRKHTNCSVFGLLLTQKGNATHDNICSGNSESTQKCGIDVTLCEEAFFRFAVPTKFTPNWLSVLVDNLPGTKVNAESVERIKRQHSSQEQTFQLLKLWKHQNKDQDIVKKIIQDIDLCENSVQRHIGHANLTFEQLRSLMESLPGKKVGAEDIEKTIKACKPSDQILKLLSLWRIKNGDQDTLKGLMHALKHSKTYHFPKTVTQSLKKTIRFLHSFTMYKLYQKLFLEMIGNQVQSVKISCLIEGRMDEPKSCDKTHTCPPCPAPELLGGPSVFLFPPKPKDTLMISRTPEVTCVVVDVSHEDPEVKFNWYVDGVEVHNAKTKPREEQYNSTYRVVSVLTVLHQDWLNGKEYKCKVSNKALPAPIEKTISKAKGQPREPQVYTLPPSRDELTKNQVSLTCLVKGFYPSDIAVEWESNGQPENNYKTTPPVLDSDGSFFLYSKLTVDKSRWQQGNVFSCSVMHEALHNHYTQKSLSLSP
T3 sequence (chain, as listed by the source limits assumed): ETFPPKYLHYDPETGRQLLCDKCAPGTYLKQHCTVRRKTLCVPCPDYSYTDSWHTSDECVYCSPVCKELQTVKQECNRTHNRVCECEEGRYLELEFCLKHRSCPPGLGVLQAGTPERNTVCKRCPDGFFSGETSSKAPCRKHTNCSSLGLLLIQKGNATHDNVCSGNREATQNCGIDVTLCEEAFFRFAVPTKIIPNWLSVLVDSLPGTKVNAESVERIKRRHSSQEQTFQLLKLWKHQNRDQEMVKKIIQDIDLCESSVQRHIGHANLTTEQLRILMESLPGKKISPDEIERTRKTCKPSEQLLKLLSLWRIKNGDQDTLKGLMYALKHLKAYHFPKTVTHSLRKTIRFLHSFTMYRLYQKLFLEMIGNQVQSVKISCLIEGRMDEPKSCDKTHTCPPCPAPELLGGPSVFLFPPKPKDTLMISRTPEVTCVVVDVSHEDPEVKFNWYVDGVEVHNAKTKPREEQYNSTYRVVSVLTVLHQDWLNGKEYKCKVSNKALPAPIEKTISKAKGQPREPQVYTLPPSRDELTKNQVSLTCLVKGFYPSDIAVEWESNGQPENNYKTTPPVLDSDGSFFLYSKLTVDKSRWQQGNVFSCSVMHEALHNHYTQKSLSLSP

B1: Ky4 (16G05) (antibody, V domains shown)
VH: EVQLVESGGGLVQPGRSLRLSCAVSGFTFDDYAMHWVRQPPGKGLEWVSGISWNSGSIDYADSVKGRFTISRDNAKNSLYLQMNSLRAEDTALYYCAKDYYYDSSAYVLFDYWGQGTLVTVSS
VL: DIQMTQSPSSLSASVGDRVIITCRASQSISSYLNWYQQKPGKAPELLIYGASSLQSGVPSRFSGSGSGTDFTLTISSLQPEDFATYYCQQSFSTPLTFGGGTKVEIK
notes: Campaign KM058; In SPR and HTRF it was tested as hybridoma material (human variable regions, mouse constant regions; captured on anti-mouse IgG)
Regarding B1, the Kd with Human OPG-Fc [1] amounted to 0.18 nM; in the test with Cyno OPG-Fc [2] it was 0.17 nM; with Rat OPG-Fc [3], 1.3 nM; with Human OPG-Fc [5] it was 0.18 nM; with Cyno OPG-Fc [6], 0.166 nM; with Rat OPG-Fc [7], 1.3 nM. The “% Max Specific binding” value stood at 65.1% with Human OPG-Fc [4] and 50.7% in the test with Human OPG-Fc [8].

B2: Ky2 (8C10) (antibody, V domains shown)
VH: EVQLVESGGGLVQPGRSLRLSCAASGFTFDDYAMHWVRQGPGKGLEWVSSISWNSGRIDYADSVKGRFTISRDNAKNSLYLQMNRLRAEDTALYYCAKDGFYDILTGSFFDYWGQGILVTVSS
VL: DIQMTQSPSSLSASVGDRVTITCRASQSISSYLNWYHQEPGKAPNLLIYGASSLQSGVPSRFSGSGSGTDFTLTISSLQPEDFATYYCQQSYSAPPEWTFGQGTKVEIK
notes: Campaign KM059; In SPR and HTRF it was tested as hybridoma material (human variable regions, mouse constant regions; captured on anti-mouse IgG)
On to B2, for which the Kd with Human OPG-Fc [1] was 0.1 nM; with Rat OPG-Fc [3], 7.39 nM; with Human OPG-Fc [5], 0.1 nM; in the test with Rat OPG-Fc [7], 7.39 nM. In addition, the “% Max Specific binding” value in the test with Human OPG-Fc [8] worked out at 20.1%. Also, the binding result with Cyno OPG-Fc [9] is “binds”.

B3: Ky3 (15F11) (antibody, V domains shown)
VH: EVQLVESGGGLVQPGGSLRLSCAASGFTFGRYDMNWVRQTTGKGLEWVSAIGTAGDTYYPGSVKGRFTISRENAKNSLYLQMNSLRPGDTAVYYCARARPYYYDSGSYYHAPFDYWGQGTLVTVSS
VL: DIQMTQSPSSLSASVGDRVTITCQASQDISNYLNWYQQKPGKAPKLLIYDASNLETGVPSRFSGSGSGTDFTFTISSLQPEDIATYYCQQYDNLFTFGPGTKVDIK
notes: as for B1
With B3, the “EC50 (read off the curve)” value with Human OPG-Fc [10] is ~10 nM. Also, the Kd with Rat OPG-Fc [3] and with Rat OPG-Fc [7] was 0.12 nM each time. Moreover, in the test with Human OPG-Fc [4], the “% Max Specific binding” value came out at 27.1%. For the same molecule, in the test with Human OPG-Fc [11], the IC50 came out at 1.4 nM. Besides, the binding result with Cyno OPG-Fc [9] is on record as “binds”.

B4: Ky1 (6D07) (antibody, V domains shown)
VH: QVQLVQSGAEVKKPGASVKVSCKASGYTFTSYGISWVRQAPGQGLEWMGWISAYNGNTNYKQKLQGRVTMTTDTSTSTAYMELRSLRSDDTAVYYCARGGSGRYYPWGQGTLVTVSS
VL: DIQMTQSPSSLSASVGDRVTITCRASQGIRNDLGWYQQIPGKAPKRLIYDASSLQSGVPSRFSGSGSGTEFTLTISSLQPEDFATYYCLQHNSYPFTFGPGTKVDIK
notes: as for B2
On to B4, for which the Kd worked out at 0.17 nM with Human OPG-Fc [1]; 14.8 nM with Cyno OPG-Fc [2]; 1.35 nM with Rat OPG-Fc [3]; 0.17 nM with Human OPG-Fc [5]; 14.8 nM in the test with Cyno OPG-Fc [6]; 1.35 nM with Rat OPG-Fc [7]. For the same molecule, the “% Max Specific binding” value in the test with Human OPG-Fc [8] worked out at 4.8%.

B5: Ky5 (15H06) (antibody, V domains shown)
VH: not shown
VL: AIQMTQSPSSVSASVGDRVTITCRASQGISSWLAWYQQKPGKAPKLLIYAASSLHSGVPSRFSGSGSETDFTLTISSLHPEDFATYYCQQSNSFPLTFGGGTKVEIK
notes: as for B1
For B5, the binding result with Cyno OPG-Fc [12] is “binds”. For the same molecule, the Kd with Human OPG-Fc [1] came out at 0.18 nM; with Rat OPG-Fc [3], 0.36 nM; with Human OPG-Fc [5], 0.18 nM; with Rat OPG-Fc [7], 0.36 nM. Also, the “% Max Specific binding” value with Human OPG-Fc [4] stood at 86.6%; with Human OPG-Fc [8], 55.8%.

The values are drawn from patent US20190352413A1 (KYMAB, published 2019).
